# Reference: patent publication US20060094649A1
# Target: HLA-B*5401 (human)
# Test: competition vs 125I probe, purified HLA
# Conditions: remark: other sources report otherwise
row,IC50,Binder
1,3.2 nM,IPWQRLLLTA [CEA.13]

# Target: HLA-A*0301 (human)
# Test: competition vs 125I probe, purified HLA
# Conditions: remark: other sources report otherwise
row,Binder,IC50
1,SSCMGGMNR [p53.240 (9-mer)],550 nM
2,RVCACPGR [p53.273 (8-mer)],31 nM
3,FSTTINYTLWR [MAGE2.71],1000 nM
4,YFFPVIFSK [MAGE3.138],5000 nM
5,GVRVRAMAIYK [p53.154.V2],58 nM
6,GTRVRAMAIYK [p53.154],10 nM
7,KVYQGSYGFR [p53.101.V2],38 nM

# Continued, values first:
row,IC50,Binder
1,29 nM,KMFCQLAK [p53.132]
2,33 nM,KVYQGSYGFK [p53.101.V2K10]
3,36 nM,YVFPVIFSR [MAGE3.138.V2R9]
4,33 nM,SVSRHKKLMFK [p53.375.V2]
5,500 nM,LLGDNQIMPK [MAGE3.189]

# Target: HLA-A*3101 (human)
# Test: competition vs 125I probe, purified HLA
# Conditions: remark: other sources report otherwise
row,Binder,IC50
1,ALIETSYVK [MAGE2.277],900 nM
2,CTYSPALNK [p53.124],1500 nM
3,TVINYTLWK [MAGE2.73.V2K9],9000 nM
4,RVRAMAIYK [p53.156],5 nM
5,KVYQGSYGFR [p53.101.V2],72 nM

# Continued, values first:
row,IC50,Binder
1,9 nM,RVRAMAIYR [p53.156.R9]
2,6 nM,YVFPVIFSR [MAGE3.138.V2R9]

# Target: HLA-B*5301 (human)
# Test: competition vs 125I probe, purified HLA
# Conditions: remark: other sources report otherwise
row,IC50,Binder
1,51.7 nM,KPYDGIPI [Her2/neu.921I8]

# Target: HLA-A*6801 (human)
# Test: competition vs 125I probe, purified HLA
# Conditions: remark: other sources report otherwise
row,Binder,IC50
1,LVHFLLLKY [MAGE2/3.116 (9-mer)],8000 nM
2,SVSRHKKLMFR [p53.376.V2R11],500 nM
3,KVYQGSYGFR [p53.101.V2],40 nM

# Continued, values first:
row,IC50,Binder
1,727 nM,KMFCQLAK [p53.132]
2,38 nM,KVYQGSYGFK [p53.101.V2K10]
3,400 nM,LVHFLLLK [MAGE2/3.116 (8-mer)]

# Target: HLA-A*1101 (human)
# Test: competition vs 125I probe, purified HLA
# Conditions: remark: other sources report otherwise
row,Binder,IC50
1,SSCMGGMNR [p53.240 (9-mer)],4.3 nM
2,KTYQGSYGFK [p53.101.K10],14 nM
3,KVYQGSYGFR [p53.101.V2],62 nM

# Continued, values first:
row,IC50,Binder
1,17 nM,KMFCQLAK [p53.132]
2,3 nM,SSFSTTINK [MAGE2.69.K9]
3,9.2 nM,KVYQGSYGFK [p53.101.V2K10]
4,3 nM,YVFPVIFSK [MAGE3.138.V2]
5,40 nM,LVHFLLLK [MAGE2/3.116 (8-mer)]
6,70 nM,SSCMGGMNRR [p53.240 (10-mer)]

# Target: HLA-A*3301 (human)
# Test: competition vs 125I probe, purified HLA
# Conditions: remark: other sources report otherwise
row,IC50,Binder
1,9 nM,SMLEVFEGR [MAGE2.226]

# Target: HLA-B*4002 (human)
# Test: competition with radiolabeled probe peptide, purified HLA
# Conditions: remark: other sources report otherwise
row,IC50,Binder
1,9.5 nM,GERLPQPPICTI […]

# Target: HLA-B*3501 (human)
# Test: inhibition of 125I-B35con2 probe, purified HLA
# Conditions: remark: other sources report otherwise
row,IC50,Binder
1,32.7 nM,APAPAPSW [p53.84 APAPAPSW]

# Target: HLA-A*0301 (human)
# Test: competitive inhibition of 125I-A3con binding to purified HLA
# Conditions: remark: other sources report otherwise
row,IC50,Binder
1,31 nM,RVCACPGR [p53.273 RVCACPGR]
2,10 nM,GTRVRAMAIYK [p53.154 …]

# Target: HLA-A*3101 (human)
# Test: as above
# Conditions: remark: other sources report otherwise
row,IC50,Binder
1,1500 nM,CTYSPALNK [p53.124 …]

# Target: HLA-A*1101 (human)
# Test: as above
# Conditions: remark: other sources report otherwise
row,IC50,Binder
1,14 nM,KTYQGSYGFK [p53.101.K10 …]
2,3 nM,SSFSTTINK [MAGE2.69.K9 …]
3,3 nM,YVFPVIFSK [MAGE3.138.V2 …]

# Target: HLA-B*0702 (human)
# Test: inhibition of 125I-[..] probe, purified HLA
# Conditions: remark: other sources report otherwise
row,IC50,Binder
1,60 nM,YPLWSQSI [MAGE3.77.I8 YPLWSQSI]
